Source: publication PMC13451967
Values belong to the substance of their own block, whether it stands above or below them.

Legend:
[1] = target: His-SpNDK R28A mutant (Streptococcus pneumoniae); assay: SEC; Superdex 200 Increase 10/300 GL, 50 mM HEPES pH 7.4, 100 mM NaCl; concentrated sample; molecular weights from a standard curve
[2] = target: Streptococcus pneumoniae nucleoside diphosphate kinase with an N-terminal hexa-histidine tag (His-SpNDK), wild type (Streptococcus pneumoniae); assay: as above
[3] = target: Streptococcus pneumoniae nucleoside diphosphate kinase with an N-terminal hexa-histidine tag (His-SpNDK), wild type (Streptococcus pneumoniae); assay: mass photometry; Refeyn OneMP; His-SpNDK diluted to 200 nM, 5 µL added to 15 µL of buffer; 50 mM HEPES pH 7.4, 100 mM NaCl; no nucleotide (ADP or GDP had no significant effect on the wild type)
[4] = target: His-SpNDK H121A mutant (catalytically inactive) (Streptococcus pneumoniae); assay: mass photometry; Refeyn OneMP; 50 mM HEPES pH 7.4, 150 mM NaCl with ATP or GTP and 5 mM MgCl2, 5 min at 22°C before the analysis

Substance: His-SpNDK R28A mutant (enzyme)
- stoichiometry N [1]: 2

- stoichiometry N [2]: 18
- stoichiometry N [3]: 18
Substance: Streptococcus pneumoniae nucleoside diphosphate kinase with an N-terminal hexa-histidine tag (His-SpNDK), wild type (enzyme)

Substance: His-SpNDK H121A mutant (catalytically inactive) (enzyme)
- stoichiometry N [4]: < 6
